Assay results taken from paper doi:10.1101/2021.04.09.439147 (bioRxiv, 2021).

Molecular target: T1, SARS-CoV-2 S1 subunits-His tag (SARS-CoV-2, reference assumed, UniProt P0DTC2)
T1 construct: source: bought: Sino Biological
Assay: ELISA
Conditions: both partners purified

B1: FLAG-tagged K-874A (VHH)
VHH: EVQLVESGGGQVETGGSLRLSCQASGSTFSDYVMAWFRQRPGKEREFVATISRNGGTTTYGSSVKGRFTISRDNAKSTVYLQMNSLKPEDTAVYYCYAVGGDGDSWGQGTQVTVSS
notes: also called CoVHH1-FLAG
  binding result: binds
